Results published in patent US20230118307A1, “THERAPEUTIC USE OF LONG-ACTING CONJUGATE OF TRIPLE AGONIST HAVING ACTIVITIES TO ALL OF GLUCAGON/GLP-1/GIP RECEPTORS FOR LUNG DISEASE” (HANMI PHARM. CO., LTD., priority 2020, published 2023).
Positions of bridges follow the written chain, without caps; N, C: chain ends. Non-standard residues stand in square brackets, D forms with d. No end group written: not given here. *: point of attachment. Acetyl(2-(4-imidazolyl)) = O=C(Cc1c[nH]cn1)*; Aib = CC(C)(N)C(=O)O

B1: triple agonist of SEQ ID NO: 6 (peptide)
peptide: H[Aib]QGTFTSDVSSYLDGQAAKEFVAWLLKGC
B2: triple agonist of SEQ ID NO: 60 (peptide)
peptide: {Acetyl(2-(4-imidazolyl))}-[Aib]QGTFTSDYSIAMDEKHCKDFVNWLLNTK
modifications: bridge 15-19
B3: triple agonist of SEQ ID NO: 53 (peptide)
peptide: H[Aib]EGTFTSDYSIAMDEIHQKDFVNWLLAQC
modifications: bridge 16-20
B4: triple agonist of SEQ ID NO: 58 (peptide)
peptide: H[Aib]QGTFTSDYSKYLDEKRQKEFVQWLLNTKC
modifications: bridge 16-20
B5: triple agonist of SEQ ID NO: 44 (peptide)
peptide: HGQGTFTSDCSKQLDGQAAQEFVAWLLAGGPSSGAPPPS
B6: triple agonist of SEQ ID NO: 48 (peptide)
peptide: HGQGTFTSDCSKYLDGQRAQDFVNWLLAGGPSSGAPPPS
B7: triple agonist of SEQ ID NO: 45 (peptide)
peptide: HGQGTFTSDCSKYMDGQAAQDFVAWLLAGGPSSGAPPPS
B8: triple agonist of SEQ ID NO: 47 (peptide)
peptide: HGQGTFTSDCSKYLDGQRAQEFVAWLLAGGPSSGAPPPS
B9: triple agonist of SEQ ID NO: 46 (peptide)
peptide: HGQGTFTSDCSKYLDEQHAQEFVAWLLAGGPSSGAPPPS
B10: triple agonist of SEQ ID NO: 39 (peptide)
peptide: H[Aib]QGTFTSDYSKYLDGQHAQCFVAWLLAGGGPSSGAPPPS
B11: triple agonist of SEQ ID NO: 35 (peptide)
peptide: H[Aib]QGTFTSDYSIAMDEIHQKDFVNWLLNTKC
modifications: bridge 16-20
B12: triple agonist of SEQ ID NO: 55 (peptide)
peptide: H[Aib]QGTFTSDYSIAMDEIHQKDFVNWLLAQC
modifications: bridge 16-20
B13: triple agonist of SEQ ID NO: 5 (peptide)
peptide: H[Aib]QGTFTSDVSSYLLGQQQKEFIAWLVKGGGPSSGAPPPSC
modifications: ends and bridges not checked
B14: triple agonist of SEQ ID NO: 49 (peptide)
peptide: {Acetyl(2-(4-imidazolyl))}-[Aib]QGTFTSDYSICMDEIHQKDFVNWLLNTK
modifications: bridge 15-19
B15: triple agonist of SEQ ID NO: 38 (peptide)
peptide: [Acetyl(2-(4-imidazolyl))][Aib]QGTFTSDKSSYLDERAAQDFVQWLLDGGPSSGAPPPSS

What follows are binders tested against human GLP-1 receptor (human, UniProt P43220 24-463) (assay: cell-based or functional assay).

Binder | In vitro Activity Compared to Native Peptide (%) vs. GLP-1
B1 | 17%
B2 | 106%
B3 | 161%
B4 | 39.1%
B5 | 1.3%
B6 | 1.5%
B7 | 6.6%
B8 | 2.4%
B9 | 1.4%
B10 | 13.9%
B11 | 7.5%
B12 | 27.1%
B13 | 42.1%
B14 | 29.8%
B15 | 2.3%

Each binder was assayed against human GCG receptor (human, UniProt P47871 26-477) (assay: cell-based or functional assay).
human GCG receptor, sequence (P47871 26-477): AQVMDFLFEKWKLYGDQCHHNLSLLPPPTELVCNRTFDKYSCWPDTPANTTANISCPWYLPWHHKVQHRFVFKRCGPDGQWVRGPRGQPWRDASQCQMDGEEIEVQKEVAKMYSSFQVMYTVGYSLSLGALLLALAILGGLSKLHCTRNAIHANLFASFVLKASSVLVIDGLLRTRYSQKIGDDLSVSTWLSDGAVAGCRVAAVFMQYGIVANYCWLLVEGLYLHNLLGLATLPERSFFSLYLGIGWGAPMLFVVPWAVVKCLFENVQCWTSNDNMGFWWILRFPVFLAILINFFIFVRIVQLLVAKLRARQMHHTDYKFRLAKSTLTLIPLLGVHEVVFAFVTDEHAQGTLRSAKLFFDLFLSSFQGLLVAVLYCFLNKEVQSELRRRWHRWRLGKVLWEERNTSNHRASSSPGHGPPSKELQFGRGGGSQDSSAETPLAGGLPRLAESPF

Binder | In vitro Activity Compared to Native Peptide (%) vs. Glucagon
B1 | < 0.1%
B2 | < 0.1%
B3 | 8.4%
B4 | 2.6%
B5 | < 0.1%
B6 | < 0.1%
B7 | < 0.1%
B8 | < 0.1%
B9 | < 0.1%
B10 | 0.53%
B11 | < 0.1%
B12 | 0.7%
B13 | < 0.1%
B14 | < 0.1%

The binders below were run against T1, human GIP receptor (human, UniProt P48546 22-466) (assay: cell-based or functional assay).
T1 sequence (looked up): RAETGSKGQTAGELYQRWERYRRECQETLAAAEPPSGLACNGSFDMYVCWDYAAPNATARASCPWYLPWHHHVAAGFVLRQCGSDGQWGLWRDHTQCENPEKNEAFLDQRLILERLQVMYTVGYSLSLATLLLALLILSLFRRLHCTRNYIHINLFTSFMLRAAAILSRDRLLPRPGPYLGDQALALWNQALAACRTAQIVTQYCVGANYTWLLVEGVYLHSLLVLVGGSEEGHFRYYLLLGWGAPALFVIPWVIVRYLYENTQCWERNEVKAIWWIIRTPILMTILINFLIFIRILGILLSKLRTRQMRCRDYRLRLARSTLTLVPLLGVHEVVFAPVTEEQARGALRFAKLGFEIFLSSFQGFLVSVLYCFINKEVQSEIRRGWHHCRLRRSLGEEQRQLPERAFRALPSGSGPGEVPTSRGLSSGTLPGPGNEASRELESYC

Binder | In vitro Activity Compared to Native Peptide (%) vs. GIP
B1 | < 0.1%
B2 | 8.2%
B3 | 1.3%
B4 | 0.2%
B5 | < 0.1%
B6 | < 0.1%
B7 | < 0.1%
B8 | < 0.1%
B9 | < 0.1%
B10 | < 0.1%
B11 | 1.3%
B12 | 2.4%
B13 | < 0.1%
B14 | 3.3%
